Laboratory results as given in the supplement of paper PMC9112550, “Optimization of the antimicrobial peptide Bac7 by deep mutational scanning” (BMC Biology, 2022).

These sequences were tested on Escherichia coli TOP10 (assay: shrunken log2 fold change of peptide-encoding DNA abundance (4.5 h post-induction vs induction); higher = less antimicrobial activity (less host growth inhibition)). Conditions: time post-induction: 4.5 h; library: site-saturation at positions 5, 18, 19, 20.
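Further: peptides expressed intracellularly from a pBAD plasmid library in pooled LB shake-flask culture, induced with 0.3% L-arabinose, DNA abundance read by NGS, three biological replicates, DESeq2 with apeglm shrinkage.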

Row | Sequence | shrunken log2 fold change
1 | RRIRPRPPRLPRPRPRPNNCPRP | -0.0794
2 | RRIRLRPPRLPRPRPRPQKFPRP | 0.0452
3 | RRIRTRPPRLPRPRPRPSYRPRP | -0.271
4 | RRIRKRPPRLPRPRPRPSVFPRP | 0.244
5 | RRIRLRPPRLPRPRPRPLWDPRP | 0.466
6 | RRIRKRPPRLPRPRPRPCEGPRP | 0.0796
7 | RRIRDRPPRLPRPRPRPMWFPRP | 0.0563
8 | RRIRVRPPRLPRPRPRPCRWPRP | 0.182
9 | RRIRPRPPRLPRPRPRPVEEPRP | 0.54
10 | RRIRARPPRLPRPRPRPNHDPRP | -0.141
11 | RRIRPRPPRLPRPRPRPPKNPRP | 0.26
12 | RRIRCRPPRLPRPRPRPEKLPRP | -0.077
13 | RRIRTRPPRLPRPRPRPHGCPRP | 0.14
14 | RRIRKRPPRLPRPRPRPKEFPRP | 0.232
15 | RRIRRRPPRLPRPRPRPCEFPRP | -0.109
16 | RRIRMRPPRLPRPRPRPCNAPRP | 0.0226
17 | RRIRWRPPRLPRPRPRPWVCPRP | 0.186
18 | RRIRFRPPRLPRPRPRPPHRPRP | 0.324
19 | RRIRSRPPRLPRPRPRPAFIPRP | -0.0885
20 | RRIRFRPPRLPRPRPRPCLCPRP | -0.0404
21 | RRIRTRPPRLPRPRPRPGFPPRP | -0.0413
22 | RRIRSRPPRLPRPRPRPNLPPRP | 0.247
23 | RRIRCRPPRLPRPRPRPECVPRP | 0.588
24 | RRIRVRPPRLPRPRPRPIYDPRP | -0.576
25 | RRIRGRPPRLPRPRPRPWEVPRP | 0.0273

Row | Sequence | shrunken log2 fold change
26 | RRIRNRPPRLPRPRPRPRPIPRP | 0.333
27 | RRIRVRPPRLPRPRPRPVHHPRP | -0.199
28 | RRIRQRPPRLPRPRPRPYMAPRP | -0.274
29 | RRIRIRPPRLPRPRPRPAWTPRP | 0.304
30 | RRIRPRPPRLPRPRPRPYWNPRP | -0.151
31 | RRIRHRPPRLPRPRPRPKKSPRP | -0.0145
32 | RRIRIRPPRLPRPRPRPALKPRP | -0.0298
33 | RRIRVRPPRLPRPRPRPVHPPRP | 0.312
34 | RRIRQRPPRLPRPRPRPKHGPRP | 0.00489
35 | RRIRGRPPRLPRPRPRPHVMPRP | 0.0731
36 | RRIRTRPPRLPRPRPRPNKNPRP | -0.156
37 | RRIRVRPPRLPRPRPRPTCRPRP | 0.147
38 | RRIRYRPPRLPRPRPRPISQPRP | -0.299
39 | RRIRLRPPRLPRPRPRPSRTPRP | -0.204
40 | RRIRVRPPRLPRPRPRPMMGPRP | 0.00748
41 | RRIRSRPPRLPRPRPRPARCPRP | 0.114
42 | RRIRHRPPRLPRPRPRPLVTPRP | 1.93
43 | RRIRHRPPRLPRPRPRPQCPPRP | -0.211
44 | RRIRNRPPRLPRPRPRPPEMPRP | 0.0979
45 | RRIRGRPPRLPRPRPRPWHPPRP | 0.49
46 | RRIRPRPPRLPRPRPRPGKQPRP | -0.0793
47 | RRIRMRPPRLPRPRPRPEARPRP | 1.76
48 | RRIRWRPPRLPRPRPRPYRFPRP | -0.0166
49 | RRIRSRPPRLPRPRPRPPQCPRP | 0.115
50 | RRIRWRPPRLPRPRPRPRESPRP | 0.846

Row | Sequence | shrunken log2 fold change
51 | RRIRRRPPRLPRPRPRPFQSPRP | 0.0629
52 | RRIRARPPRLPRPRPRPEWYPRP | 0.137
53 | RRIRKRPPRLPRPRPRPQMYPRP | -0.192
54 | RRIRDRPPRLPRPRPRPLIWPRP | 0.176
55 | RRIRGRPPRLPRPRPRPCHYPRP | 0.0219
56 | RRIRDRPPRLPRPRPRPKYGPRP | -0.0519
57 | RRIRTRPPRLPRPRPRPKCSPRP | -0.0669
58 | RRIRSRPPRLPRPRPRPWVQPRP | 0.127
59 | RRIRIRPPRLPRPRPRPRHWPRP | -0.12
60 | RRIRKRPPRLPRPRPRPVCMPRP | 0.0492
61 | RRIRFRPPRLPRPRPRPWYPPRP | -0.321
62 | RRIRLRPPRLPRPRPRPMAEPRP | 0.141
63 | RRIRTRPPRLPRPRPRPPNDPRP | -0.133
64 | RRIRCRPPRLPRPRPRPPFDPRP | 0.415
65 | RRIRWRPPRLPRPRPRPLTIPRP | -0.162
66 | RRIRHRPPRLPRPRPRPHASPRP | 0.00288
67 | RRIRQRPPRLPRPRPRPIGTPRP | 0.0722
68 | RRIRHRPPRLPRPRPRPIYMPRP | -0.0111
69 | RRIRDRPPRLPRPRPRPHCIPRP | -0.00742
70 | RRIRYRPPRLPRPRPRPHMSPRP | -0.452
71 | RRIRYRPPRLPRPRPRPIIPPRP | -0.825
72 | RRIRARPPRLPRPRPRPIEWPRP | 0.638
73 | RRIRLRPPRLPRPRPRPPYSPRP | -0.125
74 | RRIRPRPPRLPRPRPRPPSRPRP | 0.353
75 | RRIRLRPPRLPRPRPRPIRMPRP | -0.0243

Row | Sequence | shrunken log2 fold change
76 | RRIRTRPPRLPRPRPRPDLGPRP | -0.117
77 | RRIRTRPPRLPRPRPRPWAYPRP | 0.013
78 | RRIRSRPPRLPRPRPRPPCIPRP | -0.105
79 | RRIRKRPPRLPRPRPRPSGQPRP | 0.244
80 | RRIRWRPPRLPRPRPRPLHLPRP | -0.234
81 | RRIRARPPRLPRPRPRPVKKPRP | 0.147
82 | RRIRRRPPRLPRPRPRPYMKPRP | -0.0984
83 | RRIRDRPPRLPRPRPRPELPPRP | 0.302
84 | RRIRVRPPRLPRPRPRPDFHPRP | -0.208
85 | RRIRYRPPRLPRPRPRPPYSPRP | -0.45
86 | RRIRERPPRLPRPRPRPIRDPRP | 0.0201
87 | RRIRSRPPRLPRPRPRPTSWPRP | 0.239
88 | RRIRFRPPRLPRPRPRPIYSPRP | -0.751
89 | RRIRCRPPRLPRPRPRPSTHPRP | -0.454
90 | RRIRIRPPRLPRPRPRPICDPRP | -0.412
91 | RRIRARPPRLPRPRPRPSFCPRP | 0.167
92 | RRIRQRPPRLPRPRPRPHYWPRP | 0.0403
93 | RRIRRRPPRLPRPRPRPNNHPRP | -0.374
94 | RRIRERPPRLPRPRPRPLIIPRP | -1
95 | RRIRSRPPRLPRPRPRPVHHPRP | 0.0874
96 | RRIRWRPPRLPRPRPRPKSWPRP | 0.389
97 | RRIRIRPPRLPRPRPRPYSDPRP | -0.186
98 | RRIRMRPPRLPRPRPRPCPTPRP | 0.11
99 | RRIRYRPPRLPRPRPRPAYPPRP | -0.422
100 | RRIRHRPPRLPRPRPRPARTPRP | 0.19

Row | Sequence | shrunken log2 fold change
101 | RRIRGRPPRLPRPRPRPPEVPRP | 1.02
102 | RRIRDRPPRLPRPRPRPPHKPRP | 0.0115
103 | RRIRQRPPRLPRPRPRPKINPRP | -0.354
104 | RRIRWRPPRLPRPRPRPQYCPRP | -0.198
105 | RRIRTRPPRLPRPRPRPGVSPRP | -0.221
106 | RRIRDRPPRLPRPRPRPIFRPRP | -0.202
107 | RRIRRRPPRLPRPRPRPEHPPRP | 3.32
108 | RRIRDRPPRLPRPRPRPETPPRP | 0.904
109 | RRIRYRPPRLPRPRPRPFARPRP | -0.084
110 | RRIRERPPRLPRPRPRPKGVPRP | 0.723
111 | RRIRERPPRLPRPRPRPFLDPRP | -0.318
112 | RRIRHRPPRLPRPRPRPFTQPRP | -0.0771
113 | RRIRARPPRLPRPRPRPCRTPRP | 0.0201
114 | RRIRKRPPRLPRPRPRPAICPRP | 0.0922
115 | RRIRMRPPRLPRPRPRPQALPRP | 0.0439
116 | RRIRVRPPRLPRPRPRPSEQPRP | -0.0241
117 | RRIRTRPPRLPRPRPRPEWAPRP | 0.213
118 | RRIRERPPRLPRPRPRPVDTPRP | 0.000639
119 | RRIRNRPPRLPRPRPRPNLNPRP | -0.557
120 | RRIRWRPPRLPRPRPRPWTSPRP | -0.0584
121 | RRIRIRPPRLPRPRPRPAKPPRP | 0.297
122 | RRIRKRPPRLPRPRPRPENTPRP | 0.44
123 | RRIRKRPPRLPRPRPRPTQPPRP | 0.606
124 | RRIRNRPPRLPRPRPRPVKVPRP | -0.0708
125 | RRIRHRPPRLPRPRPRPSCIPRP | -0.265

Row | Sequence | shrunken log2 fold change
126 | RRIRERPPRLPRPRPRPHCTPRP | -0.0432
127 | RRIRMRPPRLPRPRPRPVLMPRP | 0.229
128 | RRIRFRPPRLPRPRPRPCEPPRP | 0.0391
129 | RRIRTRPPRLPRPRPRPFWCPRP | -0.111
130 | RRIRMRPPRLPRPRPRPIVFPRP | 0.038
131 | RRIRQRPPRLPRPRPRPNENPRP | -0.0578
132 | RRIRHRPPRLPRPRPRPIYEPRP | -0.234
133 | RRIRIRPPRLPRPRPRPYTIPRP | -0.605
134 | RRIRMRPPRLPRPRPRPETTPRP | 3.65
135 | RRIRYRPPRLPRPRPRPDNIPRP | 0.0653
136 | RRIRARPPRLPRPRPRPLRTPRP | 0.541
137 | RRIRQRPPRLPRPRPRPHPQPRP | 0.24
138 | RRIRSRPPRLPRPRPRPAFEPRP | 0.0595
139 | RRIRCRPPRLPRPRPRPYRVPRP | 1.99
140 | RRIRSRPPRLPRPRPRPAWHPRP | 0.0201
141 | RRIRRRPPRLPRPRPRPACEPRP | 0.192
142 | RRIRFRPPRLPRPRPRPTEQPRP | -0.0361
143 | RRIRVRPPRLPRPRPRPVDNPRP | -0.663
144 | RRIRYRPPRLPRPRPRPTAAPRP | 0.111
145 | RRIRMRPPRLPRPRPRPWHIPRP | -0.0015
146 | RRIRLRPPRLPRPRPRPQAQPRP | 0.0698
147 | RRIRDRPPRLPRPRPRPVQQPRP | -0.00151
148 | RRIRARPPRLPRPRPRPHEEPRP | 0.793
149 | RRIRARPPRLPRPRPRPQMSPRP | 0.0835
150 | RRIRMRPPRLPRPRPRPIIEPRP | -0.0631
